This is an account of results in patent US20220041711A1 (NGM BIOPHARMACEUTICALS, published 2022).

The chains are these.
B4: human LAIR-1-Fc (Fc fusion)
chain: QEEDLPRPSISAEPGTVIPLGSHVTFVCRGPVGVQTFRLERESRSTYNDTEDVSQASPSESEARFRIDSVSEGNAGPYRCIYYKPPKWSEQSDYLELLVKETSGGPDSPDTEPGSSAGPTQRPSDNSHNEHAPASQGLKAEHLY
notes: also called biotinylated human LAIR-1-Fc; not shown: a Fc region

The target of assay [1] is T1, cyno LAIR-1-CD3ζ chimeric receptor on NFAT-GFP reporter cells (cynomolgus monkey; human). Briefly: cell-based or functional assay.
The target of assay [2] is T2, human LAIR-1-CD3ζ chimeric receptor on NFAT-GFP reporter cells (human, UniProt P20963 31-164, limits assumed). In words: cell-based or functional assay.
The target in assay [3] is T2, human LAIR-1-CD3ζ chimeric receptor on …. In words: cell-based or functional assay. This is another data set of the same source.
The assay “human LAIR-1-Fc” has as its target B4. In words: ELISA blocking: plate coated with 5 µg/mL human collagen type 1, antibody titrated, 1 µg/mL biotinylated human LAIR-1-Fc, streptavidin-HRP, OD650. On the technique in general: An ELISA detects its analyte on a solid surface through an enzyme-linked reagent.
In assay [4] the target is T1, cyno LAIR-1-CD3ζ chimeric receptor on …. Briefly: cell-based or functional assay. This is another data set of the same source.
The target in assay [5] is T2, human LAIR-1-CD3ζ chimeric receptor on …. In words: cell-based or functional assay. This is another data set of the same source.
For assay [6], the target named is T1, cyno LAIR-1-CD3ζ chimeric receptor on …. In words: cell-based or functional assay. The source holds these as a separate data set.
Assay [7] concerns the target T2, human LAIR-1-CD3ζ chimeric receptor on …. In words: cell-based or functional assay. This is another data set of the same source.
The target in another assay is T3, human LAIR-1-ECD (human, UniProt Q6GTX8 22-165).
T3 construct: Recombinant, expressed in mammalian cells; also called extracellular region of human LAIR-1
T3 chain: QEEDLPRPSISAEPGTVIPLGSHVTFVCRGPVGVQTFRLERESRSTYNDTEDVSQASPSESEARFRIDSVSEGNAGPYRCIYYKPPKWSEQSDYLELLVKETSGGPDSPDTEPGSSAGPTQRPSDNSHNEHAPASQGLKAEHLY
In words: SPR (Biacore) as in Example 2. (Surface plasmon resonance follows binding to a sensor surface in real time, without labels.)

In a further assay the target is T4, cyno LAIR-1-ECD (cynomolgus monkey).
T4 construct: Recombinant, expressed in mammalian cells; also called extracellular region of cyno LAIR-1
T4 chain: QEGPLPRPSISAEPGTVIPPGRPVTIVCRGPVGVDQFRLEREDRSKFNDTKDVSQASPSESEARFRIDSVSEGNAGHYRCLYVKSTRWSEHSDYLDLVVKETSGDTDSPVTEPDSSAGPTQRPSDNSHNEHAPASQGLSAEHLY
Briefly: SPR (Biacore) as in Example 2.

Assay [8] deals with T5, human MARCO expressed on cells (721.221-MARCO, 293T-MARCO) (human, UniProt Q9UEW3 1-520).
T5 construct: also called 721.221 cells expressing MARCO
T5 sequence: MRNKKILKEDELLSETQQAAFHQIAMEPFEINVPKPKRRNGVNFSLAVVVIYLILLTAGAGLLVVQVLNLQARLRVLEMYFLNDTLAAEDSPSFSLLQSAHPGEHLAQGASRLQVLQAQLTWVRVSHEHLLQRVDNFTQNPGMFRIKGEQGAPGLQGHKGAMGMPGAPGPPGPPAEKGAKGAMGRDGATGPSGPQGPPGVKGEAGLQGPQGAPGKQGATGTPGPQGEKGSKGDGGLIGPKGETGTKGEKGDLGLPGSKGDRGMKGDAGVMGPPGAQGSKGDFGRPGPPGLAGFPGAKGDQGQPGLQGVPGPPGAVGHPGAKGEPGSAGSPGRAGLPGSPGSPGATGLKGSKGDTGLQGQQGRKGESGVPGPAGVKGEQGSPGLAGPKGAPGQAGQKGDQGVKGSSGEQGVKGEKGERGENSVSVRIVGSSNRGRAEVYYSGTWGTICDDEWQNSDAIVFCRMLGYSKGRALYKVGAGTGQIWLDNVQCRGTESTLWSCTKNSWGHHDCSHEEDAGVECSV
In words: flow cytometry, Fc protein at 10 µg/mL on 721.221 cells expressing MARCO, PE anti-Fc secondary.

Assay [9] has as its target T2, human LAIR-1-CD3ζ chimeric receptor on …. In words: cell-based or functional assay. The source holds these as a separate data set.
Assay [10] has the same target. Briefly: flow cytometry on human LAIR-1 reporter cells, PE anti-human Fc secondary, MFI (panel Human LAIR1 Cells). On the technique in general: A flow cytometer gives signals particle by particle.
In assay [11] the target is T1, cyno LAIR-1-CD3ζ chimeric receptor on …. In words: flow cytometry on cyno LAIR-1 reporter cells, PE anti-human Fc secondary, MFI (panel Cynomolgus Monkey LAIR1 Cells).
For assay [12], the target named is T6, mouse LAIR-1 (form in the assay not stated) (mouse, UniProt Q8BG84 22-144, limits assumed).
T6 sequence: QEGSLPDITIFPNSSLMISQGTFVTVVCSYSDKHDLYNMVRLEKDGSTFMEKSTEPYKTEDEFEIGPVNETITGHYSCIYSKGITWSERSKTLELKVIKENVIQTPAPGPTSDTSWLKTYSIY
In words: not described.

For assay [13], the target named is T7, human LAIR-1b (alternative isoform of human LAIR-1) on transfected 293T cells (human, UniProt Q6GTX8 22-287).
T7 chain: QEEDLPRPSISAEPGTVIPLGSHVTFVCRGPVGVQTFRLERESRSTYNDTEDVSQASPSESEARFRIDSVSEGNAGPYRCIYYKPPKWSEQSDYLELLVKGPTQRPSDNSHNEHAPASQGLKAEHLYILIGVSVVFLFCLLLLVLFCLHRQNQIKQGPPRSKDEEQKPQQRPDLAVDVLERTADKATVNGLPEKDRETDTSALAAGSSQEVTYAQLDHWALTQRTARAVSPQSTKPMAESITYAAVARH
Briefly: flow cytometry on cells expressing human LAIR-1b, PE anti-human Fc secondary, MFI (panel Human LAIR1 (Truncated) Cells).

Where two headings read alike, the source gives them in different places.

B1: anti-LAIR-1 antibody ch62G10 (antibody, V domains shown)
VH: EVQLVETGGGLVQPKGSLKLSCATSGFTFNINAMNWVRQAPGKGLEWVARIRTKNNNFATYYADSVKDRFTISRDDSQSMLYLQMNNLKTEDTAMYYCVRGPYFDYWGQGTTLTVSS
VL: DIQMTQSPASQSASLGESVTITCLASQTIGTWLAWYQQKPGKSPQLLIYAATSLADGVPSRFSGSGSGTKFSFKISNLQAEDFVTYYCQQLYSTPYTFGGGTKLEIK
notes: The prefix 'ch' is not defined
What is called Kd is the constant that tells how readily two partners part at equilibrium. By koff is commonly meant a measure of how fast the partners let go of each other. In general, kon refers to a measure of how fast the partners come together. Turning to B1, the “IC50 (read off the curve): % GFP+ cyno LAIR-1 reporter cells co-cultured with bEnd.3 cells” value in assay [1] is around 0.2 nM. The “IC50 (read off the curve): % GFP+ human LAIR-1 reporter cells co-cultured with bEnd.3 cells” value in assay [2] was around 0.04 nM. In [3], the “IC50 (read off the curve): % GFP+ human LAIR-1 reporter cells on coated MARCO-his” value was around 0.07 nM, the “IC50 (read off the curve): % GFP+ human LAIR-1 reporter cells on coated collagen 1” value was around 0.1 nM and the “IC50 (read off the curve): % GFP+ human LAIR-1 reporter cells on coated collagen 4” value was around 0.1 nM. The “IC50 (read off the curve)” value with human LAIR-1-Fc was around 3 nM. In assay [4], the “IC50 (read off the curve): % GFP+ cyno LAIR-1 reporter cells on polymerized collagen matrix” value is around 0.2 nM. Further, in assay [5], the “IC50 (read off the curve): % GFP+ human LAIR-1 reporter cells on polymerized collagen matrix” value was around 0.03 nM. Moreover, in assay [6], the “IC50 (read off the curve): % GFP+ cyno LAIR-1 reporter cells on coated MARCO-his” value was around 0.2 nM, the “IC50 (read off the curve): % GFP+ cyno LAIR-1 reporter cells on coated collagen 1” value was around 0.4 nM and the “IC50 (read off the curve): % GFP+ cyno LAIR-1 reporter cells on coated collagen 4” value is around 0.2 nM. For the same molecule, in assay [7], the “IC50 (read off the curve): % GFP+ human LAIR-1 reporter cells on coated MARCO-his” value is around 0.06 nM, the “IC50 (read off the curve): % GFP+ human LAIR-1 reporter cells on coated collagen 1” value is around 0.04 nM and the “IC50 (read off the curve): % GFP+ human LAIR-1 reporter cells on coated collagen 4” value was around 0.03 nM. In the assay with human LAIR-1-ECD, this molecule yielded a Kd of 0.9 nM, a koff of 0.00069 s⁻¹ and a kon of 770000 M⁻¹ s⁻¹. In the assay with cyno LAIR-1-ECD, the dissociation constant (Kd) amounted to 16 nM, the koff is 0.0043 s⁻¹ and the kon was 280000 M⁻¹ s⁻¹.

B2: LAIR-2-Fc (Fc fusion)
chain: QEGALPRPSISAEPGTVISPGSHVTFMCRGPVGVQTFRLEREDRAKYKDSYNVFRLGPSESEARFHIDSVSEGNAGLYRCLYYKPPGWSEHSDFLELLVKESSGGPDSPDTEPGSSAGTVPGTEASGFDAP
notes: LAIR-2 soluble protein fused to a Fc region; also called human LAIR-2-Fc; not shown: a Fc region
Take B2: the binding result in [8] is “binds”.

B3: humanized anti-LAIR-1 antibody Hz47H1.v4 (antibody, human IgG1, kappa, N297G, V domains shown)
VH: EVQLVESGGGLVQPGGSLRLSCAASGFTFNINAMNWVRQAPGKGLEWVARIRTKNYNYATFYADSVKDRFTISRDDSKNSLYLQMNSLKTEDTAVYYCVRDRAGFFAYWGQGTTVTVSS
VL: DIQMTQSPSSLSASVGDRVTITCLASQTIGTWLGWYQQKPGKAPKLLIYAATSLAEGVPSRFSGSGSGTDFTLTISSLQPEDFATYYCQQLYSTPLTFGGGTKVEIKR
notes: Humanized 47H1 with reengineered VH CDR2 and VL CDR2
The EC50 (read off the curve) is the midpoint of the concentration-response curve. In the case of B3, the “IC50 (read off the curve): % GFP+ cyno LAIR-1 reporter cells co-cultured with bEnd.3 cells” value in [1] is around 0.1 nM. Besides, in assay [9], the “IC50 (M), reporter cell assay, ligand COLEC12” value is 1.2e-11 M; the “IC50 (M), reporter cell assay, ligand Collagen 1” value was determined as 3.2e-11 M; the “IC50 (M), reporter cell assay, ligand Collagen 4” value was found to be 3.2e-11 M; the “IC50 (M), reporter cell assay, ligand MARCO” value was determined as 3.2e-11 M. In addition, in assay [9], the “IC50 (M), reporter cell assay, ligand MBL” value was 4.2e-11 M; the “IC50 (M), reporter cell assay, ligand Polymerized Collagen Matrix” value turned out to be 3e-11 M; the “IC50 (M), reporter cell assay, ligand SPD” value was determined as 2e-11 M; the “IC50 (M), reporter cell assay, ligand Tumor Cell Collagens” value was 1.6e-11 M. In addition, the “IC50 (read off the curve)” value in the assay with human LAIR-1-Fc is around 3 nM. Besides, the “EC50 (read off the curve)” value in [10] is around 0.2 nM. In addition, the half-maximal effective concentration (EC50 (read off the curve)) in assay [11] is around 1 nM. Also, the “IC50 (read off the curve): % GFP+ cyno LAIR-1 reporter cells on polymerized collagen matrix” value in assay [4] is around 0.09 nM. Moreover, the binding result in assay [12] is reported as “no binding”. In assay [6], the “IC50 (read off the curve): % GFP+ cyno LAIR-1 reporter cells on coated MARCO-his” value was around 0.06 nM, the “IC50 (read off the curve): % GFP+ cyno LAIR-1 reporter cells on coated collagen 1” value was around 0.1 nM and the “IC50 (read off the curve): % GFP+ cyno LAIR-1 reporter cells on coated collagen 4” value was around 0.08 nM. Also, in assay [7], the “IC50 (read off the curve): % GFP+ human LAIR-1 reporter cells on coated MARCO-his” value is around 0.02 nM, the “IC50 (read off the curve): % GFP+ human LAIR-1 reporter cells on coated collagen 1” value is around 0.02 nM and the “IC50 (read off the curve): % GFP+ human LAIR-1 reporter cells on coated collagen 4” value was around 0.02 nM. In the assay with human LAIR-1-ECD, this molecule showed a Kd of 0.26 nM, a koff of 0.0006 s⁻¹ and a kon of 2.3e+06 M⁻¹ s⁻¹. In addition, in the assay with cyno LAIR-1-ECD, the Kd worked out at 4.3 nM, the off-rate (koff) stood at 0.0016 s⁻¹ and the kon was determined as 390000 M⁻¹ s⁻¹. Besides, the “EC50 (read off the curve)” value in assay [13] was around 2 nM.
Turning to B4, the binding result in [8] was “binds”.
